One may read the koff as the rate constant with which the complex falls apart.

In patent US20090297535A1 (Ablynx, published 2009) one finds koff data, which are given here for 31 molecules.

The assay deals with T1, recombinant human IL6 (human, UniProt P05231 30-212).
T1 construct: Amine-coupled to a CM5 chip in the Biacore assay; used biotinylated in the Alphascreen assays; also called interleukin-6; biotinylated human IL6
The experiment in a line: SPR, Biacore 3000; IL6 amine-coupled on CM5 chip, periplasmic extract injected. On the procedure: Off-rate analysis of Nanobodies binding to IL6 was done by surface plasmon resonance on a Biacore 3000 instrument. Recombinant human IL6 was covalently bound to a CM5 sensor chip via amine coupling at a density of ˜500 RU. Remaining reactive groups were inactivated. Periplasmic extracts prepared from E. coli cells expressing anti-IL6 Nanobodies were diluted 10 or 15-fold and injected for 4 min to allow for binding to IL6 immobilized on the chip. Buffer without Nanobody was sent over the chip for 30 min to allow for spontaneous dissociation of bound Nanobody. The dissociation phase was used to calculate the koff values for each individual Nanobody (table B-1).

B1: NC3 (VHH)
VHH: EVQLVESGGGLVQPGGSLRLSCAASGNIAAINVMNWYRQAPGTQREFVAAITSGGRKNYADSVKGRFTISRDNAKNTVHLQMNSLKPEDTAVYYCNADAPLASDDDVAPADYWGQGTQVTVSS
notes: Monovalent Nanobody
As for B1, the koff is 0.00056 s⁻¹.

B2: PMP20D2 (VHH)
VHH: AVQLVESGGGLVQPGGSLRLSCAASGSISRFNIMGWYRQAPGKQRELVADITNRGTTNYADSVKGRFTISRDNTKNTVYLQMNSLKPDDTAVYYCHTYYPTTGFDDWGQGTQVTVSS
notes: Monovalent Nanobody
In the case of B2, the koff was determined as 0.000243 s⁻¹.

B3: PMP21E12 (VHH)
VHH: AVQLVESGGGLVQPGGSLRLSCAASGSITSINPMGWYRQAPGKQRELVARIHGSITNYADSVKGRFTISRDIAKNTVYLQMNSLKPEDTAVYYCNARRWGYDYWGQGAQVTVSS
notes: Monovalent Nanobody
B3: the koff turned out to be 0.00222 s⁻¹.

B4: PMP21C12 (VHH)
VHH: AVQLVESGGGLVQPGGSLRLSCAASGSITGINPMGWYRQAPGKQRELVARIHGSITNYADSVKGRFTISRDIAKNTAYLQMNSLKPEDTAVYYCNARRWGYDYWGQGAQVTVSS
notes: Monovalent Nanobody
In the case of B4, the koff worked out at 0.000897 s⁻¹.

B5: PMP7H3 (VHH)
VHH: DVQLVESGGGLVQPGGSLRLSCAASGFTLDYYGVGWFRQAPGKEREGVSCISSSDGDTYYADSVKGRFTISRDNAKNTVYLQMNSLKPEDTAVYYCATDLSDYGVCSRWPSPYDYWGQGTQVTVSS
notes: Monovalent Nanobody
Turning to B5, the koff worked out at 0.00309 s⁻¹.

B6: PMP9A9 (VHH)
VHH: QVQLVESGGGLVQPGGSLRLSCAASGFSLDYYGVGWFRQAPGKEREGVSCTSSSDGDTYYADSVKGRFTISRDNAKNTVYLQMNSLKPEDTAVYYCATDLSDYGVCSRWPSPYDYWGQGTQVTVSS
notes: Monovalent Nanobody
As for B6, the koff was 0.00605 s⁻¹.

B7: PMP22E3 (VHH)
VHH: QVQLVESGGGLVQPGGSLRLSCAASGFTLDDSAIGWFRQAPGKEREGVSCISSSDGDTYYDDSVKGRFTISRDNVKNMVYLQMNSLKPEDTAVYFCAIDLSDYGVCSKWPSPYDYWGQGTQVTVSS
notes: Monovalent Nanobody
Turning to B7, the koff was 0.00519 s⁻¹.

B8: PMP6B7 (VHH)
VHH: QVQLVESGGGLVQAGGSLRLSCAASGGTFSAFPMGWFRQAPGKERKFVAGISQSGGSTHYSDSVKGRFTISRENAKNTVYLQMNSLKPEDTAVYYCAARGRTLALRNYAYTTEVGYDDWGQGTQVTVSS
notes: Monovalent Nanobody
On to B8, for which the koff was 0.000199 s⁻¹.

B9: PMP14G1 (VHH)
VHH: QVKLEESGGGLVQAGGSLRLSCAASGGTFSAFPMGWFRQAPGKEREFVAGISQSGGSTHYSDSVKGRFTISKENAKNTVYLQMNSLKPEDTAVYYCAARGGTLALRNYAYTTEVGYDDWGQGTQVTVSS
notes: Monovalent Nanobody
For B9, the koff was 0.00079 s⁻¹.

B10: PMP9F9 (VHH)
VHH: AVQLVESGGGLVQAGGSLRLSCAASGGTFSSFPMGWFRQAPGEKREFVAGISQSGGSTHYSDSVKGRFTISRENARNTVYLQMNSLKPEDTAVYYCAARGRTLALRNYAYTTEVGYDDWGQGTQVTVSS
notes: Monovalent Nanobody
B10: the koff came to 0.00019 s⁻¹.

B11: PMP14E1 (VHH)
VHH: QVQLVESGGGLVQAGGSLRLSCAASGRTFSSYPMGWFRQAPGKERKFVAGISQSGGSTAYSDSVKGRFTISRENAKSTVYLQMNSLKPEDTAVYYCAARDKTLALRDYAYTTDVGYDDWGQGTQVTVSS
notes: Monovalent Nanobody
Turning to B11, the koff stood at 0.00057 s⁻¹.

B12: PMP14A8 (VHH)
VHH: EVQLVESGGGLVQAGGSLRLSCAASGGTFSSFPMGWFRQAPGKERKFVAGISQSGGSTHYSDSVKGRFTISRENAKNTVYLQMNNLKPEDTAVYYCAARGRTLALRNYAYTTEVGYDDWGQGTQVTVSS
notes: Monovalent Nanobody
B12: the koff was 0.000131 s⁻¹.

B13: PMP12C5 (VHH)
VHH: DVQLVESGGGLVQAGGSLRLSCAASGGTFTSYPMGWFRQAPGKERKFVAGISQSGGSTAYSDSVKGRFTISRENAKTTVYLQMNSLKPEDTAVYYCAARGRTLFLRGYAYTTEVGYDDWGQGTQVTVSS
notes: Monovalent Nanobody
B13: the off-rate constant (koff) worked out at 0.000211 s⁻¹.

B14: PMP12H3 (VHH)
VHH: AVQLVDSGGGLVQAGGSLRLSCAASGGTFTSYPMGWFRQAPGKERKFVAGISQSGGSTAYSDSVKGRFTISRENAKTTVYLQMNSLKPEDTAVYYCAARGRTLFLRDYAYTTEVGYDDWGQGTQVTVSS
notes: Monovalent Nanobody
Consider B14, for which the koff amounted to 0.000243 s⁻¹.

B15: PMP14G11 (VHH)
VHH: QVQLVESGGGLVQAGGSLRLSCAASGGTFSSFPMGWFRQAPGKGREFVAGISQSGGSTHYSDSVKGRFTISRENAKNTVYLQMNSLKPEDTAVYYCAARGRTLALRNYAYTTEVGYDDWGQGTQVTVSS
notes: Monovalent Nanobody
As for B15, the koff is 0.000229 s⁻¹.

B16: PMP17B5 (VHH)
VHH: QVQLVESGGGLVQAGGSLRLSCAASGGTFSAFPMGWFRQAPGKERKFVAGISQSGGSTHYSDSVKGRFTISRENAKNTIYLQMNSLKPEDTAVYYCAARGRTLALRNYAYTTEVGYDDWGQGTQVTVSS
notes: Monovalent Nanobody
In the case of B16, the koff came to 0.00015 s⁻¹.

B17: PMP17D7 (VHH)
VHH: AVQLVDSGGGLVQAGGSLRLSCAASGGTFSAFPMGWFRQAPGKEREFVAGISQSGGSTHYSDSVKGRFTISKENAKNTVYLQMNSLKPEDTAVYYCAARGRTLALRNYAYTTEVGYDDWGQGTQVTVSS
notes: Monovalent Nanobody
B17: the koff turned out to be 0.00116 s⁻¹.

B18: PMP6E9 (VHH)
VHH: EVQLVESGGGLVQAGGSLRLSCAASGRTFSSYPMGWFRQAPGKERKFVAGISQSSSSTAYSDSVKGRFTISRENAKNTVYLQMNSLKPEDTAVYYCAARGRTLALRDYAYTTEVGYDDWGQGTQVTVSS
notes: Monovalent Nanobody
As for B18, the koff amounted to 0.000631 s⁻¹.

B19: PMP14E9 (VHH)
VHH: AVQLVESGGGLVQAGGSLRLSCAASGGTFSAFPMGWFRQAPGKEREFVAGISQSGGSTHYSDSVKGRFTISKENAKSTVYLQMNSLKPEDTAVYYCAARGRTLALRNYAYTTEVGYDDWGQGTQVTVSS
notes: Monovalent Nanobody
Take B19: the koff worked out at 0.000531 s⁻¹.

B20: PMP6G10 (VHH)
VHH: QVQLVESGGGLAQAGGSLRLSCVVSGRTFSPYTIGWFSQRPGKEREWVATIIGSDRSTDLDGDTYYADSVRGRFTISRNDAKNTVSLQMNSLKPEDSAVYYCALTAKGYVFTDNEYDYWGQGTQVTVSS
notes: Monovalent Nanobody
On to B20, for which the koff was determined as 0.000433 s⁻¹.

B21: PMP23H2 (VHH)
VHH: AVQLVDSGGGLVQPGGSLRLSCAASGSIFSRLAMDWYRQAPGKQRELVASIAVSGTTMLDDSVKGRFTISRDNAENTVYLQMNSLKPEDTAVYYCMAFDGYTGSDYWGRGTQVTVSS
notes: Monovalent Nanobody
With B21, the koff is 0.0016 s⁻¹.

B22: PMP13H6 (VHH)
VHH: QVKLEESGGGLVQAGGSLRLSCASSGRTFSSYVMGWFRQTPGKEREFVSTINWSGSNKYYADSVKGRFTISRDNAKNTVYLQMNSLKPEDTAVYYCAASAGGFLVPRVGQGYDYWGQGTQVTVSS
notes: Monovalent Nanobody
As for B22, the koff stood at 0.00189 s⁻¹.

B23: PMP6D5 (VHH)
VHH: QVQLVESGGGLVQAGGSLRLSCAASGRTFSPYTMGWFRQPPGKVREFVGRINWSGIRNYADSVKGRFTISRDNNNNTVYLQMNRLKPEDTAVYYCAAASQSGSGYDSWGQGTQVTVSS
In the case of B23, the koff was found to be 0.000511 s⁻¹.

B24: PMP21A7 (VHH)
VHH: AVQLVESGGGLVQAGSSLRLSCAASGRTFSPYTMGWFRQPPGKVREFVGRINWSGITNYADSVKGRFTISRDNNKNTVYLQMNRLKPEDTAVYYCAAASRSGSGYDSWGQGTQVTVSS
notes: Monovalent Nanobody
Turning to B24, the dissociation rate constant (koff) amounted to 0.000526 s⁻¹.

B25: PMP20F4 (VHH)
VHH: QVQLVESGGGLVQAGGSLRLSCAASGRTFSPYTMGWFRQPPGKVREFVGRINWSGIRNYADSVKGRFTISRDNNNNTVYLQMNRLKPEDTAVYYCAAASRSGSGYDSWGQGTQVTVSS
notes: Monovalent Nanobody
As for B25, the koff came out at 0.000195 s⁻¹.

B26: PMP13A1 (VHH)
VHH: AVQLVDSGGGLVQAGGSLRLSCAASGRTFSPYTMGWFRQPPGKVREFVGRINWSGIRNYADSVKGRFTISRDNNNNTVYLQMNRLKPEDTAVYYCAAASQSGSGYDSWGQGTQVTVSS
notes: Monovalent Nanobody
B26: the koff worked out at 0.000396 s⁻¹.

B27: PMP20G9 (VHH)
VHH: QVQLVESGGGLVQAGGSLRLSCAASGRTFSPYTVGWFRQPPGKVREFVGRINWSGIRNYADSVKGRFTISRDNNNNTVYLQMNRLKPEDTAVYYCAAASQSGSGYDSWGQGTQVTVSS
notes: Monovalent Nanobody
Take B27: the koff worked out at 0.000318 s⁻¹.

B28: PMP13D8 (VHH)
VHH: QVKLEESGGGLVQAGSSLRLSCAASGRTSSPYTMGWFRQPPGKVREFVGRINWSGITNYADSVKGRFTISRDNNKNTVYLQMNRLKPEDTAVYYCASASQVGSGYDSWGQGTQVTVSS
notes: Monovalent Nanobody
Consider B28, for which the koff turned out to be 0.000251 s⁻¹.

B29: PMP14G4 (VHH)
VHH: AVQLVDSGGGLVQAGGSLRLSCAASGRTFSSYPMGWFRQGPGKERKFVAGISQSGVGTAYSDSVKGRFTISRENAKNTVYLQMNSLKPEDTAVYYCAARDKTLALRDYAYTTDVGYDDWGQGTQVTVSS
notes: Monovalent Nanobody
Regarding B29, the koff stood at 0.000312 s⁻¹.

B30: NC6 (VHH)
VHH: EVQLVESGGGLVQAGGSLRLSCAASGPTFSSYAMGWFRQAPGKDREFVAAISSNGGSTRYADSVKGRFTISRDSAKNTAYLQMNSLKLEDTAVYYCAADETTGWVQLADFRSWGQGTQVTVSS
notes: Monovalent Nanobody
Turning to B30, the koff was 0.00082 s⁻¹.

B31: PMP21C2 (VHH)
VHH: QVQLVESGGGLVQPGGSLRLSCAASEYITSINPMAWYRQAPGKQRDLVARIFGGGSTNYADSVKGRFTISRDIAKNTVSLQMNSLKPEDTAVYYCNARRWGYDYWGQGTQVTVSS
notes: Monovalent Nanobody
Consider B31, for which the koff was 0.00116 s⁻¹.
